Columns and labels:
[1] = molecular target: T1, plasma-membranous human MSLN on cell lines (H226, HPAC, H292, OVCAR-3, MeT-5A) (human, UniProt Q13421 296-598); experiment: cell-based or functional assay
[2] = molecular target: T1, plasma-membranous human MSLN on cell …; experiment: flow cytometry on Met-5A cells, protein L-PE, 4PL fit
[3] = molecular target: T1, plasma-membranous human MSLN on cell …; experiment: cell-based or functional assay; remark: listed apart in the source
[4] = molecular target: T1, plasma-membranous human MSLN on cell …; experiment: flow cytometry on H226 cells
[5] = molecular target: T2, human recombinant CD3ε protein (Sino Biological) (human, UniProt P07766 23-126); experiment: SPR, CD3ε amine-coupled to CM5, antibody injected; footnote: kd1 of a two-state fitting model
T2 construct: Bought protein; also called recombinant human CD3ε; human CD3ε

[6] = molecular target: T1, plasma-membranous human MSLN on cell …; experiment: cell-based or functional assay; remark: listed apart in the source
[7] = molecular target: T1, plasma-membranous human MSLN on cell …; experiment: flow cytometry on HPAC cells
[8] = molecular target: T1, plasma-membranous human MSLN on cell …; experiment: cell-based or functional assay; remark: listed apart in the source
[9] = molecular target: soluble mesothelin (sMSLN); experiment: cell-based or functional assay
[10] = molecular target: T1, plasma-membranous human MSLN on cell …; experiment: cell-based or functional assay; remark: listed apart in the source
[11] = molecular target: T2, human recombinant CD3ε protein (Sino …); experiment: SPR, CD3ε amine-coupled to CM5, antibody injected; footnote: ka1 of a two-state fitting model
[12] = molecular target: T1, plasma-membranous human MSLN on cell …; experiment: cell-based or functional assay; remark: listed apart in the source
[13] = molecular target: T2, human recombinant CD3ε protein (Sino …); experiment: SPR, CD3ε amine-coupled to CM5, antibody injected
[14] = molecular target: T1, plasma-membranous human MSLN on cell …; experiment: flow cytometry on HPAC cells, protein L-PE, 4PL fit
[15] = molecular target: T1, plasma-membranous human MSLN on cell …; experiment: flow cytometry on H292 cells, protein L-PE, 4PL fit
[16] = molecular target: T1, plasma-membranous human MSLN on cell …; experiment: flow cytometry on H226 cells, protein L-PE, 4PL fit
[17] = molecular target: T3, recombinant human MSLN (purchased from Peprotech) (human, UniProt Q13421 296-598, limits assumed); experiment: SPR (Biacore T200), human MSLN; which of the two formats (MSLN immobilized / antibody captured) not given
T3 construct: Bought protein; also called recombinant human mesothelin

[18] = molecular target: T1, plasma-membranous human MSLN on cell …; experiment: flow cytometry on H292 cells
[19] = molecular target: T4, mouse serum albumin (mSA, Sigma-Aldrich A3559) (mouse, UniProt P07724 25-608); experiment: SPR, albumin immobilized on CM5, scFv as analyte, multi-cycle, 1:1 Langmuir, pH 5.5
[20] = molecular target: T5, human serum albumin (hSA, Sigma-Aldrich A3782) (human, UniProt P02768 25-609); experiment: as above
[21] = molecular target: T6, cynomolgus monkey serum albumin (cSA, Molecular Innovations CYSA) (cynomolgus monkey); experiment: as above
[22] = molecular target: T4, mouse serum albumin (mSA, Sigma-Aldrich …); experiment: SPR, albumin immobilized on CM5, scFv as analyte, multi-cycle, 1:1 Langmuir, pH 7.4
[23] = molecular target: T5, human serum albumin (hSA, Sigma-Aldrich …); experiment: as above
[24] = molecular target: T6, cynomolgus monkey serum albumin (cSA, …); experiment: as above
[25] = molecular target: T4, mouse serum albumin (mSA, Sigma-Aldrich …); experiment: SPR, albumin immobilized on CM5, scFv as analyte, 1:1 fit, pH 5.5; biphasic binding corrected with bulk correction
[26] = molecular target: T4, mouse serum albumin (mSA, Sigma-Aldrich …); experiment: SPR, albumin immobilized on CM5, scFv as analyte, 1:1 fit, pH 7.4; biphasic binding corrected with bulk correction

B1: PRO2000 (MATCH4, biMSLNhigh KD×CD3×hSA) (other)
chain 1: DIQMTQSPSSLSASVGDRVTITCQASQNIYSNLAWYQQKPGKAPKLLIYDASDLASGVPSRFSGSGSGTDFTLTISSLQPEDFATYYCQQVRSSSDIDNPFGTGTKVTVLGGGGGSGGGGSGGGGSGGGGSQVQLVESGGGLVQPGGSLRLSCAASGFSLSSYAMGWVRQAPGKGLEWIGYISTINNTYYASWAKGRFTISRDNSKNTVYLQMNSLRAEDTAVYYCAREIRSGWVDYGFSIWGQGTLVTVSSGGGGSGGGGSEVQLVESGGGLVQPGGSLRLSCAASGFSLSSYDMSWVRQAPGKGLAWIGASYASGPTYYASWAKGRFTISRDNSKNTVYLQMNSLRAEDTATYFCARGGWTGTSHSNIWGQGTLVTVSSGGGSGGGSEVQLVESGGGLVQPGGSLRLSCAASGFSFSSSYWICWVRQAPGKCLEWVGCVFTGDGTTYYASWAKGRFTISRDNSKNTVYLQMNSLRAEDTATYFCARPVSVYYYGMDLWGQGTLVTVSS
chain 2: DIQMTQSPSSLSASVGDRVTITCQASQNIYSNLAWYQQKPGKAPKLLIYDASDLASGVPSRFSGSGSGTDFTLTISSLQPEDFATYYCQQVRSSSDIDNPFGTGTKVTVLGGGGGSGGGGSGGGGSGGGGSQVQLVESGGGLVQPGGSLRLSCAASGFSLSSYAMGWVRQAPGKGLEWIGYISTINNTYYASWAKGRFTISRDNSKNTVYLQMNSLRAEDTAVYYCAREIRSGWVDYGFSIWGQGTLVTVSSGGGGSGGGGSDVVMTQSPSSLSASVGDRVTITCQASQIISSRSAWYQQKPGQPPKLLIYQASKLASGVPSRFSGSGSGTDFTLTISSLQPEDFATYYCQCTYIDSNFGAFGCGTKLTVLGGGSGGSDIQMTQSPSSLSASVGDRVTITCQSSQSVFSNNYLAWFQQKPGQSPKRLIYSASTLASGVPSRFSGSGSGTDFTLTISSLQPEDFATYYCLGSYACSSADCYVFGTGTKVTVLG
notes: Heterodimer; also called biMSLN.CD3
B1 was tested, and the “EC50 CD8+ T cell activation, H292 cells” value [1] was 114 pM, the “EC50 CD8+ T cell activation, HPAC cells” value [1] was 12.2 pM and the “EC50 target cell killing, H292 cells” value [1] was 652 pM. For the same binder, the “EC50 target cell killing, HPAC cells” value [1] was 40.8 pM, the EC50 [2] was 128 pM and the “max. binding (MFI)” value [2] was 7950 MFI. For the same binder, the “EC50 H226 target cell killing, 50 ng/ml soluble mesothelin” value [3] was 31.2 pM, the “EC50 H226 target cell killing, 500 ng/ml soluble mesothelin” value [3] was 165 pM and the “EC50 H226 target cell killing, no mesothelin” value [3] was 9.73 pM. The “fold binding against PRO1872” value [4] was 3 fold, the koff [5] was 0.00391 s⁻¹ and the “EC50 target cell killing, H226 cells, 100 ng/ml sMSLN” value [6] was 3.45 pM. The “EC50 target cell killing, H226 cells, no sMSLN” value [6] was 0.7 pM, the “max. killing, H226 cells, 100 ng/ml sMSLN” value [6] was 58.5% and the “max. killing, H226 cells, no sMSLN” value [6] was 49.4%. The “fold binding against PRO1872” value [7] was 1.5 to 2 fold, the “fold CD8+ T cell activation potency against PRO1872, HPAC cells” value [8] was 4 fold and the “fold killing potency against PRO1872, H226 cells” value [8] was 75 fold. For the same binder, the “fold reduction of H226 killing potency with 500 ng/ml sMSLN” value [9] was 17 fold, the “shift of H226 killing potency with 100 ng/ml sMSLN” value [9] was 5 fold and the “EC50 CD8+ T cell activation with H226 cells, 50 ng/ml MSLN” value [10] was 7.85 pM. The “EC50 CD8+ T cell activation with H226 cells, 500 ng/ml MSLN” value [10] was 42.4 pM, the “EC50 CD8+ T cell activation with H226 cells, no MSLN” value [10] was 1.99 pM and the kon [11] was 117000 M⁻¹ s⁻¹. The “EC50 CD8+ T cell activation, Met-5A cells” value [12] was 544 pM, the “EC50 target cell killing, H226 cells (flow cytometry cytotoxicity assay with PBMCs)” value [12] was 0.07 pM and the “EC50 target cell killing, Met-5A cells” value [12] was 145 pM. The Kd [13] was 20000 pM, the EC50 [14] was 1480 pM and the “max. binding (MFI)” value [14] was 17500 MFI. For the same binder, the EC50 [15] was 1030 pM, the “max. binding (MFI)” value [15] was 6960 MFI and the EC50 [16] was 659 pM. For the same binder, the “max. binding (MFI)” value [16] was 362000 MFI, the Kd [17] was 1060 pM and the koff [17] was 0.000421 s⁻¹. For the same binder, the kon [17] was 398000 M⁻¹ s⁻¹ and the “fold lower binding against PRO1872” value [18] was 2 fold.

B2: anti-hSA scFv PRO2155 (domain 19-04-A10-sc02) (scFv, V domains shown)
VH: EVQLVESGGGLVQPGGSLRLSCAASGFSLSSYAMNWVRQAPGKGLEWIGHINAGDIAYYATWAKGRFTISRDNSKNTVYLQMNSLRAEDTAVYFCARGAGGFSTGPFKLWGQGTLVTVSS
VL: AFELTQSPSSLSASVGDRVTITCQASESINSRLAWYQQKPGQPPKLLIYDASDLTSGVPSRFSGSGSGTDFTLTISSLQPEDFATYYCQGYGGSSTTTFGGGTKLTVLG
notes: Tested as scFv
Binder B2 has a koff [19] of 0.0002 s⁻¹, a kon [19] of 78000 M⁻¹ s⁻¹ and a Kd [20] of 3300 pM. It also gave a koff [20] of 0.003 s⁻¹, a kon [20] of 900000 M⁻¹ s⁻¹ and a Kd [21] of 2300 pM. The koff [21] was 0.0021 s⁻¹, the kon [21] was 910000 M⁻¹ s⁻¹ and the koff [22] was 0.00029 s⁻¹. It also gave a kon [22] of 32000 M⁻¹ s⁻¹, a Kd [23] of 2200 pM and a koff [23] of 0.0012 s⁻¹. It also gave a kon [23] of 550000 M⁻¹ s⁻¹, a Kd [24] of 1600 pM and a koff [24] of 0.00091 s⁻¹. For the same binder, the kon [24] was 580000 M⁻¹ s⁻¹, the Kd [25] was 2500 pM and the Kd [26] was 9000 pM.

From patent US20230203162A1 (NUMAB THERAPEUTICS, published 2023)
